Experiment [1] addresses CD47 on the surface of human red blood cells (human) (UniProt Q08722). The experiment can be described thus: FACS, human red blood cells, control antibody, 1000 nM. Background: In flow cytometry, cells or beads pass a laser one at a time.
The target in experiment [2] is CD47 on the surface of tumor cells (human) (UniProt Q08722). Nature of the experiment: FACS, SKOV-3 tumor cells, control antibody, 100 nM.

Substance human IgG4 (antibody) had a Binding to human red blood cells (MFI) in experiment [1] of 797 MFI. Further, the Binding to tumor cells (MFI) in experiment [2] came to 4640 MFI.

(Values after patent US20230406921A1.)
